The assay has as its target T1, Pyrococcus horikoshii elongation factor 2 (PhoEF-2), wild type (Pyrococcus horikoshii, UniProt O59521 1-732).
T1 sequence (looked up): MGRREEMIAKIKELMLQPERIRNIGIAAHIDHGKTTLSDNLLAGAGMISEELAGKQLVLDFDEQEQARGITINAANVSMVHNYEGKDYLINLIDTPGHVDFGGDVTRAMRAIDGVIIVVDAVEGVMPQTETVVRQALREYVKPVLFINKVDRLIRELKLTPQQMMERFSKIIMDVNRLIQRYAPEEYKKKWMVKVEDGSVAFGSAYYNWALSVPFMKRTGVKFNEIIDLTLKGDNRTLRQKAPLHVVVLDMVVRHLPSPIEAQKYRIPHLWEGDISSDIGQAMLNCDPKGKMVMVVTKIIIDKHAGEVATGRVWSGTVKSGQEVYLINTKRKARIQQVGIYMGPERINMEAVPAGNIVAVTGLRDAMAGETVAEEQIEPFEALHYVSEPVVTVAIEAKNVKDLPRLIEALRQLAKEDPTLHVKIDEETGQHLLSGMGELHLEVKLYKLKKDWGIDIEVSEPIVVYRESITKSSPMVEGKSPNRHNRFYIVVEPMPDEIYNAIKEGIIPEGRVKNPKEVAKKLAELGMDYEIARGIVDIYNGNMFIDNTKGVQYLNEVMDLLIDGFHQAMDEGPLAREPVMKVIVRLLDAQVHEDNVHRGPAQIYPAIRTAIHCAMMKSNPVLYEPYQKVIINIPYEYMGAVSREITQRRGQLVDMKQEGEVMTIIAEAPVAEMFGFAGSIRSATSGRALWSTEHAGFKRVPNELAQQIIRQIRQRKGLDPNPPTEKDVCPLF
Put plainly: crystal structure.

1 molecule from PMC5887453 (Nucleic Acids Research, 2018) can be followed below.

On to EALAGLSALFG [P1C11, peptide of the 11 C-terminal amino acids of P. horikoshii P1 (E98-G108)], for which the binding result is on record as “binds”.
